Laboratory results as given in patent US20150344570A1 (published 2015).

T1: FcγRIIb (human, UniProt P31994 43-217)
T1 construct: extracellular domain; also called FcgRIIb; 2b
T1 sequence (looked up): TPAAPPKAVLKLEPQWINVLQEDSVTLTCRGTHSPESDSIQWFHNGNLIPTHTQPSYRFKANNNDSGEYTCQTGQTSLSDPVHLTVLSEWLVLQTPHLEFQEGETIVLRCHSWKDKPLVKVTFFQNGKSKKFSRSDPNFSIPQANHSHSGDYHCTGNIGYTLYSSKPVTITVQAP


Key:
[1] = molecular target: T2, FcγRIIIa (human, UniProt P08637 17-208); test: SPR (Biacore), relative binding
T2 construct: extracellular domain; also called FcgRIIIa; 3a
T2 sequence (P08637 17-208): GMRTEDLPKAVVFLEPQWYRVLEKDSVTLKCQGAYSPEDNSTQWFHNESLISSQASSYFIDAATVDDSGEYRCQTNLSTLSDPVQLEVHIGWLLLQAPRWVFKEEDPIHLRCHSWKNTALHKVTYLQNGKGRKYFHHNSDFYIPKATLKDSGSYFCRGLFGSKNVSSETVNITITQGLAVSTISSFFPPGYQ

[2] = molecular target: T1, FcγRIIb; test: SPR (Biacore), relative binding
[3] = molecular target: T2, FcγRIIIa; test: SPR; He/Con_3a divided by He/Con_2b (FcγRIIIa against FcγRIIb)

Row | Binder | He/Con_3a [1] | He/Con_2b [2] | He_3a/2b (IIIa/IIb) [3] [ratio]
1 | GpH7-A5/GpH7-B3 variant D265_10E/GpL16-k0 (antibody, human IgG1, kappa, mutation in the GpH7-B3 chain only; also called He Ab) heavy 1: not shown heavy 2: not shown light: DIVMTQSPLSLPVTPGEPASISCQASESLVHSNRNTYLHWYLQKPGQSPQLLIYKVSNRFSGVPDRFSGSGSGTDFTLKISRVEAEDVGVYYCSQNTHVPPTFGQGTKVEIERTVAAPSVFIFPPSDEQLKSGTASVVCLLNNFYPREAKVQWKVDNALQSGNSQESVTEQDSKDSTYSLSSTLTLSKADYEKHKVYACEVTHQGLSSPVTKSFNRGEC | 20.1 % of GpH7-A5/GpH7-B3/GpL16-k0 | 38.2 % of GpH7-A5/GpH7-B3/GpL16-k0 | 0.53
2 | GpH7-A5/GpH7-B3 variant S267_06M/GpL16-k0 (antibody, human IgG1, kappa, mutation in the GpH7-B3 chain only; also called He Ab) heavy 1: not shown heavy 2: not shown light: DIVMTQSPLSLPVTPGEPASISCQASESLVHSNRNTYLHWYLQKPGQSPQLLIYKVSNRFSGVPDRFSGSGSGTDFTLKISRVEAEDVGVYYCSQNTHVPPTFGQGTKVEIERTVAAPSVFIFPPSDEQLKSGTASVVCLLNNFYPREAKVQWKVDNALQSGNSQESVTEQDSKDSTYSLSSTLTLSKADYEKHKVYACEVTHQGLSSPVTKSFNRGEC | 66 % of GpH7-A5/GpH7-B3/GpL16-k0 | 210 % of GpH7-A5/GpH7-B3/GpL16-k0 | 0.31
3 | GpH7-A5/GpH7-B3 variant V266_02A/GpL16-k0 (antibody, human IgG1, kappa, mutation in the GpH7-B3 chain only; also called He Ab) heavy 1: not shown heavy 2: not shown light: DIVMTQSPLSLPVTPGEPASISCQASESLVHSNRNTYLHWYLQKPGQSPQLLIYKVSNRFSGVPDRFSGSGSGTDFTLKISRVEAEDVGVYYCSQNTHVPPTFGQGTKVEIERTVAAPSVFIFPPSDEQLKSGTASVVCLLNNFYPREAKVQWKVDNALQSGNSQESVTEQDSKDSTYSLSSTLTLSKADYEKHKVYACEVTHQGLSSPVTKSFNRGEC | 57.4 % of GpH7-A5/GpH7-B3/GpL16-k0 | 81 % of GpH7-A5/GpH7-B3/GpL16-k0 | 0.71
4 | GpH7-A5/GpH7-B3 variant V266_04F/GpL16-k0 (antibody, human IgG1, kappa, mutation in the GpH7-B3 chain only; also called He Ab) heavy 1: not shown heavy 2: not shown light: DIVMTQSPLSLPVTPGEPASISCQASESLVHSNRNTYLHWYLQKPGQSPQLLIYKVSNRFSGVPDRFSGSGSGTDFTLKISRVEAEDVGVYYCSQNTHVPPTFGQGTKVEIERTVAAPSVFIFPPSDEQLKSGTASVVCLLNNFYPREAKVQWKVDNALQSGNSQESVTEQDSKDSTYSLSSTLTLSKADYEKHKVYACEVTHQGLSSPVTKSFNRGEC | 34.7 % of GpH7-A5/GpH7-B3/GpL16-k0 | 57.6 % of GpH7-A5/GpH7-B3/GpL16-k0 | 0.6
5 | GpH7-A5/GpH7-B3 variant D265_15Y/GpL16-k0 (antibody, human IgG1, kappa, mutation in the GpH7-B3 chain only; also called He Ab) heavy 1: not shown heavy 2: not shown light: DIVMTQSPLSLPVTPGEPASISCQASESLVHSNRNTYLHWYLQKPGQSPQLLIYKVSNRFSGVPDRFSGSGSGTDFTLKISRVEAEDVGVYYCSQNTHVPPTFGQGTKVEIERTVAAPSVFIFPPSDEQLKSGTASVVCLLNNFYPREAKVQWKVDNALQSGNSQESVTEQDSKDSTYSLSSTLTLSKADYEKHKVYACEVTHQGLSSPVTKSFNRGEC | -1.7 % of GpH7-A5/GpH7-B3/GpL16-k0 | 0.6 % of GpH7-A5/GpH7-B3/GpL16-k0 | -2.86
6 | GpH7-A5/GpH7-B3 variant D265_12R/GpL16-k0 (antibody, human IgG1, kappa, mutation in the GpH7-B3 chain only; also called He Ab) heavy 1: not shown heavy 2: not shown light: DIVMTQSPLSLPVTPGEPASISCQASESLVHSNRNTYLHWYLQKPGQSPQLLIYKVSNRFSGVPDRFSGSGSGTDFTLKISRVEAEDVGVYYCSQNTHVPPTFGQGTKVEIERTVAAPSVFIFPPSDEQLKSGTASVVCLLNNFYPREAKVQWKVDNALQSGNSQESVTEQDSKDSTYSLSSTLTLSKADYEKHKVYACEVTHQGLSSPVTKSFNRGEC | 3.2 % of GpH7-A5/GpH7-B3/GpL16-k0 | 15 % of GpH7-A5/GpH7-B3/GpL16-k0 | 0.21
7 | GpH7-A5/GpH7-B3 variant S267_05P/GpL16-k0 (antibody, human IgG1, kappa, mutation in the GpH7-B3 chain only; also called He Ab) heavy 1: not shown heavy 2: not shown light: DIVMTQSPLSLPVTPGEPASISCQASESLVHSNRNTYLHWYLQKPGQSPQLLIYKVSNRFSGVPDRFSGSGSGTDFTLKISRVEAEDVGVYYCSQNTHVPPTFGQGTKVEIERTVAAPSVFIFPPSDEQLKSGTASVVCLLNNFYPREAKVQWKVDNALQSGNSQESVTEQDSKDSTYSLSSTLTLSKADYEKHKVYACEVTHQGLSSPVTKSFNRGEC | 15.7 % of GpH7-A5/GpH7-B3/GpL16-k0 | 31.5 % of GpH7-A5/GpH7-B3/GpL16-k0 | 0.5
8 | GpH7-A5/GpH7-B3 variant V266_05P/GpL16-k0 (antibody, human IgG1, kappa, mutation in the GpH7-B3 chain only; also called He Ab) heavy 1: not shown heavy 2: not shown light: DIVMTQSPLSLPVTPGEPASISCQASESLVHSNRNTYLHWYLQKPGQSPQLLIYKVSNRFSGVPDRFSGSGSGTDFTLKISRVEAEDVGVYYCSQNTHVPPTFGQGTKVEIERTVAAPSVFIFPPSDEQLKSGTASVVCLLNNFYPREAKVQWKVDNALQSGNSQESVTEQDSKDSTYSLSSTLTLSKADYEKHKVYACEVTHQGLSSPVTKSFNRGEC | -0.7 % of GpH7-A5/GpH7-B3/GpL16-k0 | 0.4 % of GpH7-A5/GpH7-B3/GpL16-k0 | -1.98
9 | GpH7-A5/GpH7-B3 variant D265_18N/GpL16-k0 (antibody, human IgG1, kappa, mutation in the GpH7-B3 chain only; also called He Ab) heavy 1: not shown heavy 2: not shown light: DIVMTQSPLSLPVTPGEPASISCQASESLVHSNRNTYLHWYLQKPGQSPQLLIYKVSNRFSGVPDRFSGSGSGTDFTLKISRVEAEDVGVYYCSQNTHVPPTFGQGTKVEIERTVAAPSVFIFPPSDEQLKSGTASVVCLLNNFYPREAKVQWKVDNALQSGNSQESVTEQDSKDSTYSLSSTLTLSKADYEKHKVYACEVTHQGLSSPVTKSFNRGEC | 4.6 % of GpH7-A5/GpH7-B3/GpL16-k0 | 6.1 % of GpH7-A5/GpH7-B3/GpL16-k0 | 0.74
